Measurements as given in paper PMC12095580, “Wnt signalosome assembly is governed by conformational flexibility of Axin and by the AP2 clathrin adaptor” (Nature Communications, 2025).
Values belong to the molecule of their own block, whether it stands above or below them. Non-standard residues stand in square brackets, D forms with d. No end group written: not given here. pS = N[C@@H](COP(=O)(O)O)C(=O)O; Lip = Lipoyl solubility tag; His6x = hexahistidine tag

Assays:
[1] = molecular target: GSK3β-HA (UniProt P49841); test: coIP (GFP IP, α-HA blot densitometry)
[2] = molecular target: FLAG-Axin1 (UniProt O15169); test: coIP (GFP IP, α-FLAG blot densitometry); details: HEK293T cells, co-expressed with wt GSK3β-HA
[3] = molecular target: Axin1 LIRα, 345-361 (UniProt O15169); test: ITC; details: reference: unphosphorylated 43mer peptide; sites S317,S321,S325
[4] = molecular target: LRP6-GFP (UniProt O75581); test: coIP (GFP IP, α-Axin1 blot densitometry); details: co-expressed with wt GSK3β-HA
[5] = molecular target: His6x-Lip-A5_(Axin) (Axin_(308-366)) (UniProt O15169); test: ITC; 50 μM Axin fragment or GSK3β titrated with 500 μM Lip-L1_(LRP6); 25 °C, 25 mM sodium phosphate pH 6.7, 150 mM NaCl; one set of binding sites; apparent KD assuming 1:1
[6] = molecular target: His6x-Lip-L2_(LRP6) (LRP6_(1539-1613)) (UniProt O75581); test: ITC; binding of GSK3 or Axin to the CPPSPYT element of the distal LRP6 ctail; constructs and concentrations not told
[7] = molecular target: LRP6-GFP (UniProt O75581); test: coIP (GFP IP, α-HA blot densitometry)
[8] = molecular target: T1, His6x-Lip-L1_(LRP6) (LRP6_(1463-1538) bearing YYYF > A) (UniProt O75581 1463-1538, YYYF > A (Y1517; position worked out from S1516 and S1521, p-0048) | YYYF > A …); test: ITC
T1 sequence: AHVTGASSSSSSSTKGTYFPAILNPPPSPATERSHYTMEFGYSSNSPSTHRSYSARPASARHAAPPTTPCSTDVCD

[9] = molecular target: T2, GSK3β-K85R (recombinant, full-length) (UniProt P49841 1-420, K85R); test: NMR titration; BEST-TROSY peak height attenuation (bleaching): 80 μM 15N-labelled protein +/- 80 μM unlabelled partner; 25 mM sodium phosphate pH 6.7, 150 mM NaCl, 293 K; details: both partners purified
T2 construct: glycogen synthase kinase 3β, catalytically dead; also called catalytically-dead GSK3; source: E. coli BL21-CodonPlus(DE3)-RIL, purified (glutathione agarose, 3C cleavage, Superdex 200); not shown: GST, N-terminal, cleaved

[10] = molecular target: T3, phosphorylated Axin LIRup peptide (43PPP, Axin_(308-351) including pS317, pS321, pS325) (UniProt O15169 308-351, phosphoserine at 317, 321 and 325); test: ITC; 50 μM synthetic 43mer or 43PPP peptide in the cell titrated with 500 μM wt or RKR mutant Axin Lip-LIRα; 25 °C, 25 mM sodium phosphate pH 6.7, 150 mM NaCl; details: both partners purified
T3 construct: Axin1 LIRup with 7 residues of LIRα; A308-Q351 counts 44 residues though the peptide is called 43PPP; source: synthetic peptide, bought: Biomatic
T3 peptide (looked up): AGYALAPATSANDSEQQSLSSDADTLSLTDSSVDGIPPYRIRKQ

[11] = molecular target: His6x-AP2μ (YxxΦ-binding domain of rat AP2μ) (rat); test: ITC; 114 or 100 μM His6x-AP2μ titrated with 2 mM (SYRHFA) or 1.74 mM (…) His6x-Lip-YxxΦ peptide; 25 °C, 50 mM Tris-HCl pH 7.4, 300 mM NaCl
[12] = molecular target: T4, RKR mutant Axin Lip-LIRα (UniProt O15169 345-361, RKR > A (R347) | RKR > A (K350) | RKR > A (R354)); test: ITC; phosphorylated 43PPP
T4 chain: PYAIRAQHRAEMQESVQ

[13] = molecular target: T5, Axin Lip-LIRα (UniProt O15169 345-361); test: ITC; phosphorylated 43PPP
T5 chain: PYRIRKQHRREMQESVQ

[14] = molecular target: T6, His6x-Lip-L1_(LRP6) (LRP6_(1463-1538) bearing YYYF > A) (UniProt O75581 1463-1538, YYYF > A (Y1517; position worked out from S1516 and S1521, p-0048) | YYYF > A …, Lipoyl solubility tag omitted. Mutated positions are not given; inferred because LIRup (308-344) should contain exactly five Asp and one Glu, in the order D-E-D4, and the text says all …); test: ITC
T6 sequence: T1 sequence

[15] = HEK293T cells, co-expressed with wt FLAG-Axin1

Sequence of LRP6-GFP (O75581 20-1613): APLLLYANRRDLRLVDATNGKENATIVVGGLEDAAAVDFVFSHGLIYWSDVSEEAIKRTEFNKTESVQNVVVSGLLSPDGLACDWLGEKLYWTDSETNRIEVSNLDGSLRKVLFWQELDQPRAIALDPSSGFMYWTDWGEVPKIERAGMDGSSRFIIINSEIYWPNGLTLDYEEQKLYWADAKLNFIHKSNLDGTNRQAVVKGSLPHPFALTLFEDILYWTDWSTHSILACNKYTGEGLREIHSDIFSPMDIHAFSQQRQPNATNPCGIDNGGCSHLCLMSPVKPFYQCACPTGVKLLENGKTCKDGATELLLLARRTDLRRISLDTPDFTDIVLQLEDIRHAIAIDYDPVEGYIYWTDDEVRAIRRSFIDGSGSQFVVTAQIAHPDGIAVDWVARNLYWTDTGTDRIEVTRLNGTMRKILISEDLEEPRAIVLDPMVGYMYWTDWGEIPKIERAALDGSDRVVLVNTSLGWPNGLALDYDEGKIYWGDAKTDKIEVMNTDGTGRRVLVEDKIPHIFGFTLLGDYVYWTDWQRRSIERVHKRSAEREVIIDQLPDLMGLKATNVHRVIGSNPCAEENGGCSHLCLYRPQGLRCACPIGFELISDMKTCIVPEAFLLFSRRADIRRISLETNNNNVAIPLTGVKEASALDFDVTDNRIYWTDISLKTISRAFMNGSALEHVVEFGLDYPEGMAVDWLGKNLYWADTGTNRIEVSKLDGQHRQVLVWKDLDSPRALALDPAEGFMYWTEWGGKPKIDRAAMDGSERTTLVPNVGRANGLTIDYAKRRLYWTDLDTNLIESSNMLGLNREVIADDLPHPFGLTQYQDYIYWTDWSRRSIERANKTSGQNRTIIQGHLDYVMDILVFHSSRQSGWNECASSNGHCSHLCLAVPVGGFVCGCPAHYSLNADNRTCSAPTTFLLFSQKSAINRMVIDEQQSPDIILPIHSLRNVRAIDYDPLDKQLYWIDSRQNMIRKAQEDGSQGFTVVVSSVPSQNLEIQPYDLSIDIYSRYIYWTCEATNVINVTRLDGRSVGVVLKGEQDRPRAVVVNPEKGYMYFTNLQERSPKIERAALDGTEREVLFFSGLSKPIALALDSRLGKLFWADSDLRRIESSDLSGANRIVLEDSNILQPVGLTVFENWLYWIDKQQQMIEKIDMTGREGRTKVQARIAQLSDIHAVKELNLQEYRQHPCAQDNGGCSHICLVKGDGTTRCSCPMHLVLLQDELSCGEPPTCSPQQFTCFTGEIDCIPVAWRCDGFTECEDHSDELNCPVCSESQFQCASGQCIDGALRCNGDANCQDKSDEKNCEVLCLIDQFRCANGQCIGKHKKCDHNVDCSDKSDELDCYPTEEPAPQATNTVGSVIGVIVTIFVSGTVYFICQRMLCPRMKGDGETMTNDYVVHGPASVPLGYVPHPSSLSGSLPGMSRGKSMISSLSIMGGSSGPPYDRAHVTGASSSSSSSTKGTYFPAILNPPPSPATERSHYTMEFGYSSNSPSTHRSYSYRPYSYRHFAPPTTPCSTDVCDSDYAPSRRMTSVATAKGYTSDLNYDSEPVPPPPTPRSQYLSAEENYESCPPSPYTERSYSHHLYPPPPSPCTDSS
Sequence of His6x-Lip-L2_(LRP6) (LRP6_(1539-1613)) (O75581 1539-1613): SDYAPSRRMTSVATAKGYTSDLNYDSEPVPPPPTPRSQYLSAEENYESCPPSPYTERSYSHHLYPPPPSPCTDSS

Molecule: FLAG-Axin1 (from UniProt O15169) S493A; S497A
- ratio to parent [4]: 1.57

Molecule: FLAG-Axin1 (from UniProt O15169) S493D; S497D
- ratio to parent [4]: 0.56

Molecule: GSK3β (recombinant, full-length wt) (from UniProt P49841 1-420) (enzyme)
- Kd [6]: > 500 µM

B3: RKR mutant Axin Lip-LIRα (domain or fragment, UniProt O15169 345-361, looked up)
chain: PYAIRAQHRAEMQESVQ
notes: Axin1 LIRα with R347, K350, R354 changed to alanine; also called Lip-LIRα RKR > A; not shown: Lipoyl solubility tag (Lip), N-terminal, kept
- fold reduction of binding against wt Lip-LIRα [10]: ~10 x

Molecule: {His6x-Lip}-SYRPYSYRHFA [His6x-Lip-… peptide]
- Kd [11]: 8 µM

B4: Lip-DED4 > A (in Lip-A5_(Axin)) (domain or fragment)
chain: AGYALAPATSANASAQQSLSSAAATLSLTASSVAGIPPYRIRKQHRREMQESVQVNGRV
- Kd [14]: 118 µM

Next, values leading:

- ratio to parent [1, 15]: 0.07
- ratio to parent ([1]; co-expressed with FLAG-Axin1 S1>A (the wt = 1.00 lane has wt Axin)): 0.01
- ratio to parent [2]: 0.11
Molecule: LRP6-GFP (from UniProt O75581) m10 (PPPSPxS>PPPAPxA, motifs A-E)

- binding against the reference [3]: stronger
Molecule: Axin1 LIRup peptide, 308-351 (from UniProt O15169) 43PPP peptide (pS317, pS321, pS325)

- Kd [5]: 1.37 µM
Molecule: His6x-Lip-L1_(LRP6) (LRP6_(1463-1538) bearing YYYF > A) (from UniProt O75581 1463-1538) (domain or fragment)

- ratio to parent [7, 15]: 0.05
- ratio to parent ([7]; co-expressed with FLAG-Axin1 S1>A (the wt = 1.00 lane has wt Axin; wt GSK3β-HA with Axin S1>A reads 2.98)): 0.03
Molecule: GSK3β-HA (from UniProt P49841) VE>GR

- Kd [8]: 5.15 µM
B1: Lip-RKR > A (in Lip-A5_(Axin)) (domain or fragment)
chain: AGYALAPATSANDSEQQSLSSDADTLSLTDSSVDGIPPYAIRAQHRAEMQESVQVNGRV

- Kd [6]: > 500 µM
- binding result [9]: binds
B2: His6x-Lip-A3_(Axin) (Axin_(308-426)) (domain or fragment, UniProt O15169 308-426, looked up)
chain: AGYALAPATSANDSEQQSLSSDADTLSLTDSSVDGIPPYRIRKQHRREMQESVQVNGRVPLPHIPRTYRVPKEVRVEPQKFAEELIHRLEAVQRTREAEEKLEERLKRVRMEEEGEDGD
notes: Axin1 fragment with LIR, PRTxR motif and GIR; source: E. coli BL21-CodonPlus(DE3)-RIL, purified (Ni-NTA, Superdex 75); 15N-labelled where observed by NMR; not shown: Lipoyl solubility tag (Lip), N-terminal, kept

- Kd [11]: 16.2 µM
Molecule: {His6x-Lip}-SYRHFA [His6x-Lip-SYRHFA peptide]

- Kd [12]: 448 µM
- Kd [13]: 47.9 µM
Molecule: AGYALAPAT[pS]AND[pS]EQQ[pS]LSSDADTLSLTDSSVDGIPPYRIRKQ [phosphorylated Axin LIRup peptide (43PPP, Axin_(308-351) including pS317, pS321, pS325)]
